Results on 23 molecules are retold here after patent US20060269997A1 (Genentech, published 2006).

Numbering of substitutions follows the chain as printed.

B1: LK-VRB-4s (ligand, human, UniProt P15692-4 27-135, looked up)
chain: APMAEGGGQNHHEVVKIEDVFERSICHPIETLVDIFQEYPDEIEYIFKPSCVPLMRCGGCCNDEGLECVPTEESNITMQIMRIKPHQGQHIGEMSFLQHNKCECRPKKD
B2: LK-VRB-3s (ligand, human, UniProt P15692-4 27-135, looked up)
chain: B1 chain with E22K, I25S
B3: LK-VRB-5s (ligand, human, UniProt P15692-4 27-135, looked up)
chain: B1 chain with I17F, E18M, F21Y, E22Q, I25Y, D63S, L66R
B4: LK-VRB-6s (ligand, human, UniProt P15692-4 27-135, looked up)
chain: B1 chain with I17F, E18M, F21Y, E22Q, I25Y, D63S, G65A, L66T
B5: LK-VRB-7s* (ligand, human, UniProt P15692-4 27-135, looked up)
chain: B1 chain with I17F, F21Y, E22Q, I25Y, D63S, G65M, L66R
B6: LK-VRB-9s (ligand, human, UniProt P15692-4 27-135, looked up)
chain: B1 chain with I17F, E18M, F21Y, E22R, I25Y, D63S, G65M, L66R
B7: Gly 65** (ligand)
chain: B1 chain with I17F, E18M, F21Y, E22Q, I25Y, G65A
B8: Ile 43* (ligand)
chain: B1 chain with I17F, E18M, F21Y, E22Q, I25Y, I43A
B9: Leu 66** (ligand)
chain: B1 chain with I17F, E18M, F21Y, E22Q, I25Y, L66A
B10: Ile 83* (ligand)
chain: B1 chain with I17F, E18M, F21Y, E22Q, I25Y, I83A
B11: His 86** (ligand)
chain: B1 chain with I17F, E18M, F21Y, E22Q, I25Y, H86A
B12: Phe 17* (ligand)
chain: B1 chain with I17A, E18M, F21Y, E22Q, I25Y
B13: Phe 47** (ligand)
chain: B1 chain with I17F, E18M, F21Y, E22Q, I25Y, F47A
B14: Ile 46* (ligand)
chain: B1 chain with I17F, E18M, F21Y, E22Q, I25Y, I46A
B15: Lys 101 (ligand)
chain: B1 chain with I17F, E18M, F21Y, E22Q, I25Y, K101A
B16: Ile 91 (ligand)
chain: B1 chain with I17F, E18M, F21Y, E22Q, I25Y, I91A
B17: Tyr 25** (ligand)
chain: B1 chain with I17F, E18M, F21Y, E22Q, I25A
B18: Pro 106 (ligand)
chain: B1 chain with I17F, E18M, F21Y, E22Q, I25Y, P106A
B19: Lys 16 (ligand)
chain: B1 chain with K16A, I17F, E18M, F21Y, E22Q, I25Y
B20: Met 18** (ligand)
chain: B1 chain with I17F, E18A, F21Y, E22Q, I25Y
B21: Lys 48** (ligand)
chain: B1 chain with I17F, E18M, F21Y, E22Q, I25Y, K48A
B22: Met 81** (ligand)
chain: B1 chain with I17F, E18M, F21Y, E22Q, I25Y, M81A
B23: Tyr 21** (ligand)
chain: B1 chain with I17F, E18M, F21A, E22Q, I25Y

T1 sequence (P17948 27-758 limits assumed, change not shown): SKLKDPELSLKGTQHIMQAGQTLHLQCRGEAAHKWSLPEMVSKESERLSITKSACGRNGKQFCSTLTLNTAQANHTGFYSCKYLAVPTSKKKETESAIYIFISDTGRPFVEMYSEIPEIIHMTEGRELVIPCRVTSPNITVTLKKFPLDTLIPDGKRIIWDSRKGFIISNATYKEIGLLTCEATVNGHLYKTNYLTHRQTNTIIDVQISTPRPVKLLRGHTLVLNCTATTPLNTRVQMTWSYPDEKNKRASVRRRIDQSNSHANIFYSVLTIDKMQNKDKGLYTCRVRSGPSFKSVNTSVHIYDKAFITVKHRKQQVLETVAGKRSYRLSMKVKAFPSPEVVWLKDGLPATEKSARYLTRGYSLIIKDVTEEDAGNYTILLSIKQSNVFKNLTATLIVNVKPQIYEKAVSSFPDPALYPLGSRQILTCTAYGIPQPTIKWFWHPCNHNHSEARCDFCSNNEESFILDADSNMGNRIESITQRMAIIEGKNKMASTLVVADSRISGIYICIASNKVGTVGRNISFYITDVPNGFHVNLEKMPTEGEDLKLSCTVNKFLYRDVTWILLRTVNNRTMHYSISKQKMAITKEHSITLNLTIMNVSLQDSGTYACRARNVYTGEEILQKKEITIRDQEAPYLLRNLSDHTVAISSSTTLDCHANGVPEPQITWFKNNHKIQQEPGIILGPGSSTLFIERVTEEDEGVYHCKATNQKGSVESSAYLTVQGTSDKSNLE
KDR on human umbilical vein endothelial cells (HUVEC), sequence (P35968 20-1356): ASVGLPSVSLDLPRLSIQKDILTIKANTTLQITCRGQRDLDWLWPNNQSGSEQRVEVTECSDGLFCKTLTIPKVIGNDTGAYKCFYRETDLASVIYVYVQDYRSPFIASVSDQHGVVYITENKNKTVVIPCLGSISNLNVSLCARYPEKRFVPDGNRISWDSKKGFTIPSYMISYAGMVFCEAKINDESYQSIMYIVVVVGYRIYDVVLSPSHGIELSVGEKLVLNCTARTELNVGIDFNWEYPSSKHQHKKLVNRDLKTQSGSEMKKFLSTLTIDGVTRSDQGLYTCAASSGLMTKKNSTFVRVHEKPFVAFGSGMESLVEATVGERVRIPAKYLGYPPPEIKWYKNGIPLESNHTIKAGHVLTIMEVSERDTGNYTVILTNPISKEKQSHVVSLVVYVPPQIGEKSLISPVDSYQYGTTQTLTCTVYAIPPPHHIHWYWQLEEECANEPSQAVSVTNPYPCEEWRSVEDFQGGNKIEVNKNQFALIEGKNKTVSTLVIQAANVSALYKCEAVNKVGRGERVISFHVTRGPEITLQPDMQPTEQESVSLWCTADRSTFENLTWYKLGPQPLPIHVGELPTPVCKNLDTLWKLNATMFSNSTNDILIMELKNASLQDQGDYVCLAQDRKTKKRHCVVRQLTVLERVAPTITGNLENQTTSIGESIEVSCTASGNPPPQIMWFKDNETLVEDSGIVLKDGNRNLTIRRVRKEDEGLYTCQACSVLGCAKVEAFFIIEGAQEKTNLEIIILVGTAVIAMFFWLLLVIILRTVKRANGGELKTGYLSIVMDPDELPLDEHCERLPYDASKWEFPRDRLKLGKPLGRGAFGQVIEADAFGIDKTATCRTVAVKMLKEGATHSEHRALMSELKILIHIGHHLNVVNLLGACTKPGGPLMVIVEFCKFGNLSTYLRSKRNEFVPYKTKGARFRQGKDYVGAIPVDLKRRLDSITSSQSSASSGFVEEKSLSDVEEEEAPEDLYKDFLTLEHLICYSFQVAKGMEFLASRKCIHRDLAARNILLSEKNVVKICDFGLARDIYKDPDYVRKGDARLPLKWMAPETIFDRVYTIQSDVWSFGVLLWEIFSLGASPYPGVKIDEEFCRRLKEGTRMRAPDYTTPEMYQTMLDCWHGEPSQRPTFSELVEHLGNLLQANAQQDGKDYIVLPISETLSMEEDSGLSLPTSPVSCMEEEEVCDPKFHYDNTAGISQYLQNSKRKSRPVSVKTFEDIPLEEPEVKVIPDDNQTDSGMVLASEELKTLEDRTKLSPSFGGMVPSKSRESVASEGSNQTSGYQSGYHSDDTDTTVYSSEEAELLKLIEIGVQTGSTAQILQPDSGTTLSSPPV

One assay deals with gD-KDR receptor on CHO cells (UniProt P35968 20-1356). Nature of the assay: cell-based or functional assay.
Take B1: the “Phosphorylation-Inducing Activity (KIRA), midpoint concentration” value turned out to be 1 nM and the “Phosphorylation-Inducing Activity (KIRA), ratio to native VEGF (8-109)” value turned out to be 0.5 fold.
On to B2, for which the “Phosphorylation-Inducing Activity (KIRA), midpoint concentration” value worked out at 2 nM and the “Phosphorylation-Inducing Activity (KIRA), ratio to native VEGF (8-109)” value stood at 1 fold.
B3: the “Phosphorylation-Inducing Activity (KIRA), midpoint concentration” value was found to be 1 nM and the “Phosphorylation-Inducing Activity (KIRA), ratio to native VEGF (8-109)” value was 0.5 fold.
Regarding B4, the “Phosphorylation-Inducing Activity (KIRA), midpoint concentration” value worked out at 1 nM and the “Phosphorylation-Inducing Activity (KIRA), ratio to native VEGF (8-109)” value turned out to be 0.5 fold.

A further assay has as its target KDR on human umbilical vein endothelial cells (HUVEC) (human, UniProt P35968 20-1356). Nature of the assay: cell-based or functional assay.
On to B5, for which the “Endothelial Cell Proliferation Activity (HUVEC), ratio to native VEGF (8-109)” value came out at 1 fold and the “Endothelial Cell Proliferation Activity (HUVEC, 3H-thymidine), concentration” value amounted to 0.5 nM.

A further assay has as its target T1, Flt-IgG (a chimeric Flt-human Fc molecule) (UniProt P17948 27-758, limits assumed).
T1 construct: Only described as a chimeric Flt-human Fc molecule; not shown: human Fc
Nature of the assay: competition ELISA vs biotinylated native VEGF, Flt-IgG captured by anti-Fc. As to the method:
(§1) Receptor binding assays were performed in 96-well immunoplates (Maxisorp, Nunc-Immunoplate, Nalge Nunc International, Rochester, N.Y.). Each well was coated with 100 μl of a solution containing 2 μg/ml of rabbit F(ab′)2 to human IgG Fc (Jackson ImmunoResearch, West Grove, Pa.) in 50 mM carbonate buffer at pH 9.6 and incubated at 4° C. overnight. The supernatant was then discarded, the wells were washed three times in washing buffer (0.05% Tween 20 in PBS), and the plate was blocked (150 μl per well) with block buffer (0.5% BSA, 0.01% thimerosal in PBS) at room temperature for one hour. The supernatant was discarded, and the wells were washed.
The wells were filled with 100 μl of a solution containing Flt-IgG (a chimeric Flt-human Fc molecule) at 50 ng/ml in assay buffer (0.5% BSA, 0.05% Tween 20 in PBS). The wells were incubated at room temperature for 1 hour and then washed three times in wash buffer (0.05% Tween 20 in PBS).
Aliquots of the mixture (100 μl) were added to the precoated microtiter wells and the plate was incubated for 2 hours at room temperature. […] The wells were then incubated with 3,3′, 5,5′-tetramethyl benzidine (0.2 g/liter, Kirkegaard & Perry Laboratories, Gaithersburg, Md.) for about 10 minutes at room temperature. Absorbance was read at 450 nm on a Vmax plate reader (Molecular Devices, Menlo Park, Calif.).
For orientation: ELISA stands for enzyme-linked immunosorbent assay.
B1: the IC50 (usually the concentration that inhibits the measured activity by half) was 100 nM and the “Relative Binding Affinity (ratio to native VEGF (8-109))” value was found to be 200 fold.
As for B6, the “Relative Binding Affinity (ratio to native VEGF (8-109))” value turned out to be 300 fold.
For B2, the IC50 came to 170 nM and the “Relative Binding Affinity (ratio to native VEGF (8-109))” value came to 400 fold.
B3: the IC50 came out at 233 nM and the “Relative Binding Affinity (ratio to native VEGF (8-109))” value amounted to 550 fold.
Taken in the same sequence, the figures for B4 were 4 nM and 10 fold.

In a further assay the target is T2, KDR (1-3) monomer (UniProt P35968 20-327, limits assumed, biotin-labeled in the ELISA of Example 8).
T2 construct: domain: domains 1 to 3; Genentech reagent; also called domains 1 to 3 of KDR
T2 sequence (P35968 20-327 limits assumed): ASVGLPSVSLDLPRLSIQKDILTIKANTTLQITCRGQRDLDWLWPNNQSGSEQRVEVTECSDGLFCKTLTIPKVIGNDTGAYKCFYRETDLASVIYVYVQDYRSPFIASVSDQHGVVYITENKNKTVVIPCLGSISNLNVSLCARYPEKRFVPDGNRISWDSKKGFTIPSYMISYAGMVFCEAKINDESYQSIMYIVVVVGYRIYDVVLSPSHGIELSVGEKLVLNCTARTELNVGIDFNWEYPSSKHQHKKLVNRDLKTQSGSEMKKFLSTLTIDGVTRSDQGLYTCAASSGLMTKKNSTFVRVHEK
Nature of the assay: competition ELISA vs biotinylated VEGF (8-109), soluble KDR (1-3) captured by MAKD5. How it is done: as §1, with “containing 8” for “containing 2”, “of a monoclonal antibody” for “of rabbit F(ab′)2”, “to KDR known as MAKD5 (Genentech, South San Francisco, Calif.)” for “to human IgG Fc (Jackson ImmunoResearch, West Grove, Pa.)”, “was” for “was then”
Aliquots of this mixture (100 μl) were added to the precoated microtiter wells and the plate was incubated for 1 hour at room temperature. […] The wells were then incubated with 3,3′, 5,5′-tetramethyl benzidine (0.2 gram/liter; Kirkegaard & Perry Laboratories, Gaithersburg, Md.) for about 10 minutes at room temperature. Absorbance was read at 450 nm on a Vmax plate reader (Molecular Devices, Menlo Park, Calif.).
Titration curves were fit with a four-parameter nonlinear regression curve-fitting program (KaleidaGraph, Synergy Software, Reading, Pa.).
As to B1, the IC50 was determined as 1 nM and the “Relative Binding Affinity (ratio to native VEGF (8-109))” value worked out at 1 fold.
Taken in the same sequence, the figures for B6 were 0.5 nM and 0.5 fold.
With B5, the IC50 was 1 nM and the “Relative Binding Affinity (ratio to native VEGF (8-109))” value came out at 1 fold.
In the same order, the values of B2 are 1 nM and 1 fold.
In the same order, the values of B3 are 1 nM and 1 fold.
In the same order, the values of B4 are 0.5 nM and 0.5 fold.

For a further assay, the target named is T2, KDR (1-3) monomer. The assay is described as follows: competition ELISA: plate coated with VEGF (8-109), 100 pM biotin-labeled KDR(1-3), serial dilutions of the competing VEGF (Example 8). As to the method: (§2) After 1 hour, the plates were washed, and the bound protein stained with streptavidin horseradish peroxidase conjugate (Pharmacia) and assayed. Affinities were estimated as IC₅₀ values: the concentration of KDR(1-3) or Flt(1-3) that blocked 50% of protein binding.
For B7, the “fold reduction in binding (IC50 variant / IC50 VEGF(1-109))” value was found to be 1 fold.
Still for that read-out and setting: in the case of B8 it was 21 fold; in that of B9, 1 fold; in that of B10, 89 fold.
The same measure, in the same setting: then B11, with 2 fold.
Consider B12, for which the “fold reduction in binding (IC50 variant / IC50 VEGF(1-109))” value amounted to 45 fold.
In the case of B13, the “fold reduction in binding (IC50 variant / IC50 VEGF(1-109))” value is 5 fold.
Same read-out and setting: in the case of B14 it was 96 fold; in that of B15, 1 fold.
The same measure, in the same setting: then B16, with 1 fold; and B17, with 6 fold.
For B18, the “fold reduction in binding (IC50 variant / IC50 VEGF(1-109))” value is 1 fold.
With B19, the “fold reduction in binding (IC50 variant / IC50 VEGF(1-109))” value came out at 1 fold.
The same measure, in the same setting: in the case of B20 it was 5 fold.
Same read-out and setting: then B21, with 1 fold; and B22, with 9 fold.
Same read-out and setting: then B23, with 19 fold.

A further assay deals with T3, Flt-1 (1-3) monomer (UniProt P17948 27-331, limits assumed, biotin-labeled in the ELISA of Example 8).
T3 construct: domain: domains 1 to 3; Genentech reagent; also called Flt(1-3); domains 1 to 3 of Flt-1
T3 sequence (P17948 27-331 limits assumed): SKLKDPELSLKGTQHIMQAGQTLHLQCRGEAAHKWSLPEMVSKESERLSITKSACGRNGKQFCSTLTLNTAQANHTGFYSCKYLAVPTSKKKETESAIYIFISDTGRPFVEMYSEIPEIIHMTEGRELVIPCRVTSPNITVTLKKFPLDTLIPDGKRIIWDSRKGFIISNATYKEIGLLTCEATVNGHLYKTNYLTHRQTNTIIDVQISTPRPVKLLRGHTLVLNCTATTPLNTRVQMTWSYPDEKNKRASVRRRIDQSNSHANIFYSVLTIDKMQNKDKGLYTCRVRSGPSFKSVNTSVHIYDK
Nature of the assay: competition ELISA: plate coated with VEGF (8-109), 100 pM biotin-labeled Flt1(1-3), serial dilutions of the competing VEGF (Example 8). As to the method: as §2
Consider B7, for which the “fold reduction in binding (IC50 variant / IC50 VEGF(1-109))” value was 1 fold.
Take B8: the “fold reduction in binding (IC50 variant / IC50 VEGF(1-109))” value was 3 fold.
On the same count and under the same terms, in the case of B9 it was 10 fold.
The same measure, in the same setting: in the case of B10 it was 7 fold.
Still for that read-out and setting: then B11, with 1 fold; and B12, with 34 fold.
As for B13, the “fold reduction in binding (IC50 variant / IC50 VEGF(1-109))” value was 3 fold.
B14: the “fold reduction in binding (IC50 variant / IC50 VEGF(1-109))” value was found to be 4 fold.
Same read-out and setting: then B15, with 1 fold.
As to B16, the “fold reduction in binding (IC50 variant / IC50 VEGF(1-109))” value was 1 fold.
Take B17: the “fold reduction in binding (IC50 variant / IC50 VEGF(1-109))” value stood at 7 fold.
On to B18, for which the “fold reduction in binding (IC50 variant / IC50 VEGF(1-109))” value came to 1 fold.
Still for that read-out and setting: then B19, with 1 fold; and B20, with 9 fold.
Take B21: the “fold reduction in binding (IC50 variant / IC50 VEGF(1-109))” value came to 1 fold.
For the molecule B22, the “fold reduction in binding (IC50 variant / IC50 VEGF(1-109))” value stood at 5 fold.
Same read-out and setting: then B23, with 29 fold.
